Experimental data taken from US20140105926A1 (GlaxoSmithKline, published 2014).

Target: T1, Vitronectin from human plasma (SIGMA-ALDRICH) (human, UniProt P04004 20-478)
T1 construct: mature; Bought protein from human plasma. 'mature' is inferred from the plasma origin
Experiment: ELISA: plate coated with fusion protein (10 ug/ml), human plasma vitronectin titrated from 10 ug/ml, detected with peroxidase sheep anti-human vitronectin

T1 sequence (P04004 20-478): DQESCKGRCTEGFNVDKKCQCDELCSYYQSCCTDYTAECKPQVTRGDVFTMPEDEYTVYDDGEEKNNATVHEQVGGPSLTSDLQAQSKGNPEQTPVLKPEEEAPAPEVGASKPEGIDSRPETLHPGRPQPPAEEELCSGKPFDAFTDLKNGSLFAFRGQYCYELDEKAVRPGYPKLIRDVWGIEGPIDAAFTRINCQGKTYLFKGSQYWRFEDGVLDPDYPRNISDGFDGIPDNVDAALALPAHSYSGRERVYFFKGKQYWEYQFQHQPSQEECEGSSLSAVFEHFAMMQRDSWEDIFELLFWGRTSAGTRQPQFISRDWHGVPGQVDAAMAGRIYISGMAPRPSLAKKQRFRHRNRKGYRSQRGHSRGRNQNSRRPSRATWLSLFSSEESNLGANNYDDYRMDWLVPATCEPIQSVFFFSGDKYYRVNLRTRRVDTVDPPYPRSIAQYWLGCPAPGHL

B1: purified LVL317 PE-PilA fusion protein (other)
chain: QIQKAEQNDVKLAPPTDVRSGYIRLVKNVNYYIDSESIWVDNQEPQIVHFDAVVNLDKGLYVYPEPKRYARSVRQYKILNCANYHLTQVRTDFYDEFWGQGLRAAPKKQKKHTLSLTPDTTLYNAAQIICANYGEAFSVDKKGGTKKAAVSELLQASAPYKADVELCVYSTNETTNCTGGKNGIAADITTAKGYVKSVTTSNGAITVKGDGTLANMEYILQATGNAATGVTWTTTCKGTDASLFPANFCGSVTQ
notes: also called PE-PilA fusion non His-tagged protein
  binding result: binds
